From patent US20200165313A1, “EGF(A) ANALOGUES, PREPARATION, FORMULATIONS AND USES THEREOF” (Novo Nordisk A/S, priority 2017, published 2020)

Molecular target: T1, hPCSK9 (Homo sapiens, UniProt Q8NBP7)
T1 construct: purchased Sino Biologicals, China
Assay: hPCSK9 challenge model (hepatic LDL-R expression in mice, Western Blot)
Type: in vivo, mouse
Conditions: healthy control 100%, hPCSK9 alone 0%, dose of inhibitor 22 nmol/kg
Method: The aim of this study was to show the change in the LDL receptor expression level in mouse liver in response to inhibiting the action of intravenously injected hPCSK9 with an anti-PCSK9 peptide.
Healthy male BalBC or NMRI mice (Charles River, Germany) are injected with an anti-PCSK9 peptide, either s.c. or i.v. 15-120 minutes before injecting hPCSK9 (Sino Biologicals, China) intravenously in the tail vein at a dose of 0.4 mg/kg. Sixty minutes after the injection of hPCSK9, the animals are anaesthetised in isoflurane and euthanised by cervical dislocation. The liver is then quickly excised and snapfrozen in liquid nitrogen. The livers are kept at −80 degrees celsius until analysis.
The proteins were transferred to nitrocellulose membranes (iBlot 2 NC Regular stacks, novex # IB23001) according to manufacturer's instructions (Life Technology). Equal protein transfer was confirmed by Ponceau S (Sigma, P7170) staining of the membranes and the membranes were further blocked in blocking buffer (TBS-T, 2% Tween). […] Quantitative analysis of chemiluminescent signals from Western blots was done with MultiGauge software (Fujifilm).
“Vehicle-vehicle” is the group of healthy controls (baseline level), “vehicle-hPCSK9” is the group injected with hPCSK9 alone.

T1 sequence (Q8NBP7 153-692): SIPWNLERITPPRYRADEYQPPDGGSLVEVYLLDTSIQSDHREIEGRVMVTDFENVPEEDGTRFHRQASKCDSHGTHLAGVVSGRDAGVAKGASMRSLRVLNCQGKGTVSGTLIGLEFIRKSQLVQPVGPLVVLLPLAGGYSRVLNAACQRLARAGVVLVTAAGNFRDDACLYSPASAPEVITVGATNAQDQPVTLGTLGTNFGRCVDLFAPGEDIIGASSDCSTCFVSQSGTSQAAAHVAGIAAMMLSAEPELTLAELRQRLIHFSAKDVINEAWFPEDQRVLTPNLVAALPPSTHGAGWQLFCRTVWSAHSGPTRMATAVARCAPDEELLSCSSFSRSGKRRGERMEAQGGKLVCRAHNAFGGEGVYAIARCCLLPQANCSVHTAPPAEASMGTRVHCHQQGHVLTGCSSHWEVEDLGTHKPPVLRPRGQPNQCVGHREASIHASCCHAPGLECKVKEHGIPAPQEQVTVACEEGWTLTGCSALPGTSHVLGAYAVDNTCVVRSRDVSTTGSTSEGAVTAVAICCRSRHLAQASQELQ

- Percentage of baseline: 157%
Substance: Alirocumab: anti-PCSK9 antibody, control molecule in the hPCSK9 challenge model
